Source: patent publication US20210002621, “CTLA4 HOMING ENDONUCLEASE VARIANTS, COMPOSITIONS, AND METHODS OF USE” (bluebird bio, Inc., published 2021)

Assays:
[1] = molecular target: T1, CTLA4.B3.B6 I-OnuI HE variant (Ophiostoma novo-ulmi); assay: cell_activity; chromosomal iRFP reporter in HEK 293T
T1 chain: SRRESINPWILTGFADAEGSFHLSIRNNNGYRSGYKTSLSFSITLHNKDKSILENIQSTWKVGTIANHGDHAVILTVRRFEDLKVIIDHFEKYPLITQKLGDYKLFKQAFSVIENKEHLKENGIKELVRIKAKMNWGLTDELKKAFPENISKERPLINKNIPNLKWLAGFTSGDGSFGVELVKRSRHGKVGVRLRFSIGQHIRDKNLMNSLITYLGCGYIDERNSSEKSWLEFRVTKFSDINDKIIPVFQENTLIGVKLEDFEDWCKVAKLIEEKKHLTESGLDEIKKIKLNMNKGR
Protocol: (§1) The activity of reprogrammed I-OnuI HEs that target exon 2 of the CTLA4 gene was measured using a chromosomally integrated fluorescent reporter system (Certo et. al., 2011). Fully reprogrammed I-OnuI HEs that bind and cleave the CTLA4 target sequence (SEQ ID NO: 13) were cloned into mammalian expression plasmids and then individually transfected into a HEK 293T […] cell line that contained the CTLA4 target sequence upstream of an out-of-frame gene encoding the fluorescent iRFP protein. Cleavage of the embedded target site by the HE and the accumulation of indels following DNA repair via the non-homologous end joining (NHEJ) pathway results in approximately one out of three repaired loci placing the fluorescent reporter gene back “in-frame”. The percentage of iRFP fluorescing HEK 293T cells is therefore used a readout of endonuclease activity at the chromosomally embedded target sequence. […] FIG. 3 (left panel).
(§2) A secondary I-OnuI variant library was generated by performing random mutagenesis on the CTLA4.B3 HE variant (SEQ ID NO: 6). Display-based flow sorting was performed under more stringent cleavage conditions to isolate variants with improved catalytic efficiency. […] FIG. 3 (middle panel). […] FIG. 3 (right panel).

[2] = molecular target: T2, CTLA4.B3.B6.D5 I-OnuI HE variant (Ophiostoma novo-ulmi); assay: as above
T2 chain: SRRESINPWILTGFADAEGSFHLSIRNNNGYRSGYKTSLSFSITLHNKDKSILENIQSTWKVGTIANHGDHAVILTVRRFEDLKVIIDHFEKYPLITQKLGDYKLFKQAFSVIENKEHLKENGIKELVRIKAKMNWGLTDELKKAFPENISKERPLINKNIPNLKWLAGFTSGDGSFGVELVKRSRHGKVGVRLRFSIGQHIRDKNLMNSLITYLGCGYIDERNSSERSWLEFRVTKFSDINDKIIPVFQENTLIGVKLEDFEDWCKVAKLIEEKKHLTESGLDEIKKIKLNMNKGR
Protocol: as §1, §2

[3] = molecular target: T2, CTLA4.B3.B6.D5 I-OnuI HE variant; assay: flow; sub-nanomolar affinity; yeast surface affinity titration, value only in figure; settings: tags: yeast surface display

B1: CTLA4 exon 2 HE target site (dsDNA)
DNA 1: TGGAGATGCATACTCACACACA
DNA 2: TGTGTGTGAGTATGCATCTCCA
activity [1]: ~3 fold vs CTLA4.B3
activity [2]: ~2 fold vs CTLA4.B3.B6
Kd [3]: < 1 nM
